Measured values published in patent publication US20240261333A1, “NOVEL TARGETS FOR ENHANCING ANTI-TUMOR IMMUNITY” (THE BROAD INSTITUTE, INC., priority 2021, published 2024).

Legend:
[1] = molecular target: RPS19 (UniProt P39019); test: co-IP, IgG control, C-FLAG B3GNT2 cell lysate, mass spectrometry
[2] = molecular target: HSPB1 (UniProt P04792); test: as above
[3] = molecular target: SRSF1 (UniProt Q07955); test: as above
[4] = molecular target: MTDH (UniProt Q86UE4); test: as above
[5] = molecular target: HDGFL2 (human) (UniProt Q7Z4V5); test: IgG control IP from lysate of C-FLAG B3GNT2 cells, mass spectrometry
[6] = molecular target: SFXN3 (human) (UniProt Q9BWM7); test: as above
[7] = molecular target: ERP44 (human) (UniProt Q9BS26); test: as above
[8] = molecular target: ACSL3 (human) (UniProt O95573); test: as above
[9] = molecular target: RCN1 (human) (UniProt Q15293); test: as above
[10] = molecular target: H1FX (human) (UniProt Q92522); test: as above
[11] = molecular target: PSMA5 (human) (UniProt P28066); test: as above
[12] = molecular target: SLC25A22 (human) (UniProt Q9H936); test: as above
[13] = molecular target: RPL15 (human) (UniProt P61313); test: as above
[14] = molecular target: PXN (human) (UniProt P49023); test: as above
[15] = molecular target: KPNB1 (human) (UniProt Q14974); test: as above
[16] = molecular target: LDHA (human) (UniProt P00338); test: as above
[17] = molecular target: TUBA1C (human) (UniProt Q9BQE3); test: as above
[18] = molecular target: EEF2 (human) (UniProt P13639); test: as above
[19] = molecular target: RRBP1 (human) (UniProt Q9P2E9); test: as above
[20] = molecular target: TECR (human) (UniProt Q9NZ01); test: as above
[21] = molecular target: PSMC2 (human) (UniProt P35998); test: as above
[22] = molecular target: PDIA4 (human) (UniProt P13667); test: as above
[23] = molecular target: ERP29 (human) (UniProt P30040); test: as above
[24] = molecular target: RPL34 (human) (UniProt P49207); test: as above
[25] = molecular target: ELOC (human) (UniProt Q15369); test: as above
[26] = molecular target: RPS6 (human) (UniProt P62753); test: as above
[27] = molecular target: KTN1 (human) (UniProt Q86UP2); test: as above
[28] = molecular target: STAU1 (human) (UniProt O95793); test: as above
[29] = molecular target: UBTF (human) (UniProt P17480); test: as above
[30] = molecular target: TRAFD1 (human) (UniProt O14545); test: as above
[31] = molecular target: ZRANB2 (human) (UniProt O95218); test: as above
[32] = molecular target: ATAD3A (human) (UniProt Q9NVI7); test: as above
[33] = molecular target: ABCD1 (human) (UniProt P33897); test: as above
[34] = molecular target: PGAM5 (human) (UniProt Q96HS1); test: as above
[35] = molecular target: PSMB6 (human) (UniProt P28072); test: as above
[36] = molecular target: IFI16 (human) (UniProt Q16666); test: as above
[37] = molecular target: IPO7 (human) (UniProt O95373); test: as above
[38] = molecular target: NTPCR (human) (UniProt Q9BSD7); test: as above
[39] = molecular target: HSP90AB1 (human) (UniProt P08238); test: as above
[40] = molecular target: AIFM1 (human) (UniProt O95831); test: as above

Sequence of PGAM5 (human) (Q96HS1 whole entry): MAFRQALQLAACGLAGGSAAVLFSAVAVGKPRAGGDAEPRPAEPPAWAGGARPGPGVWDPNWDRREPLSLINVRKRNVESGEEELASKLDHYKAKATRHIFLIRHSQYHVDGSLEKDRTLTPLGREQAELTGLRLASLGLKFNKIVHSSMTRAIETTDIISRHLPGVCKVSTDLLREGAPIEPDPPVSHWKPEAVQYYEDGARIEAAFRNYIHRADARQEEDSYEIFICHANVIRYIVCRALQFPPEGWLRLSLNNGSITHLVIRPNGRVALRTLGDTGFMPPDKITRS
Sequence of PSMB6 (human) (P28072 35-239 limits assumed): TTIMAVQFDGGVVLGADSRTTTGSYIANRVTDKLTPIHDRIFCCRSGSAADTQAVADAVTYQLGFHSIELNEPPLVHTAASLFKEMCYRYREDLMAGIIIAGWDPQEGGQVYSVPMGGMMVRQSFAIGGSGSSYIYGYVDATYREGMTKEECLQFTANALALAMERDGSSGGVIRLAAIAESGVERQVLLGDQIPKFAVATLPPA
Sequence of ELOC (human) (Q15369 whole entry): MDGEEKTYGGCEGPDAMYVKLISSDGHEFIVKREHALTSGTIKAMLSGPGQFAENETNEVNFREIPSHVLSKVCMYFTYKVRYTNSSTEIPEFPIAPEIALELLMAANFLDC
Sequence of TRAFD1 (human) (O14545 2-582 limits assumed): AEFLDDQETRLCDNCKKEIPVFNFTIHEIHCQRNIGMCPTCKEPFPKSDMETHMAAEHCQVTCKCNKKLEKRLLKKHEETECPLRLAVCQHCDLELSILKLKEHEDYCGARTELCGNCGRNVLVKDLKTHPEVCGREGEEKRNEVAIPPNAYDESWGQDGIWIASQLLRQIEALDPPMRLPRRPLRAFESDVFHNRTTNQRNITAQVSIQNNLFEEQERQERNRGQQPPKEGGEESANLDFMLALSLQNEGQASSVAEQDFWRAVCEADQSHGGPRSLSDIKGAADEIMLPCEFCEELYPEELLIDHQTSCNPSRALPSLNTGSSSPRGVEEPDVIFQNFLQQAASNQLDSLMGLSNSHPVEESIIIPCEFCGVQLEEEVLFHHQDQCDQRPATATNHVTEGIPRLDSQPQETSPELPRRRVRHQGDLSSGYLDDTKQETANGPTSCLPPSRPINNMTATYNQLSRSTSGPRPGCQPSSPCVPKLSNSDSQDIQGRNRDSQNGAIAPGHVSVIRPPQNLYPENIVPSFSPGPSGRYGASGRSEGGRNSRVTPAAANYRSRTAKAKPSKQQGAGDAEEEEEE
Sequence of SLC25A22 (human) (Q9H936 whole entry): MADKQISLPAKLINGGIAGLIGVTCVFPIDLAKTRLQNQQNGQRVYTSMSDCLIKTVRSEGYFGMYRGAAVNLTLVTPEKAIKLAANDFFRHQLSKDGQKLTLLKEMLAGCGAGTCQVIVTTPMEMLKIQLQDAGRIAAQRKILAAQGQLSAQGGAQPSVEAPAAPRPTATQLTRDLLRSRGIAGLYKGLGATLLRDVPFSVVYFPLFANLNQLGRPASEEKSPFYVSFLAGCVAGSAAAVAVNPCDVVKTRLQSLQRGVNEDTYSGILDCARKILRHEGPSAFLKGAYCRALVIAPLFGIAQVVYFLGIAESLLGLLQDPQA
Sequence of TECR (human) (Q9NZ01 whole entry): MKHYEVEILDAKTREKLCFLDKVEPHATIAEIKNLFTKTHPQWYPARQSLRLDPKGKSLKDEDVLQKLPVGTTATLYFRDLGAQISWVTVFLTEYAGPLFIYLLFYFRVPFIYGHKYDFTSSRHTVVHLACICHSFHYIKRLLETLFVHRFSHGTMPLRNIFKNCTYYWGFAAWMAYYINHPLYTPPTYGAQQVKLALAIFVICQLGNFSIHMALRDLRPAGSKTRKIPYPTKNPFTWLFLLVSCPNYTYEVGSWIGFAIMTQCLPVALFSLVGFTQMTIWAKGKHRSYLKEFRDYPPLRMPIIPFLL
Sequence of H1FX (human) (Q92522 2-213 limits assumed): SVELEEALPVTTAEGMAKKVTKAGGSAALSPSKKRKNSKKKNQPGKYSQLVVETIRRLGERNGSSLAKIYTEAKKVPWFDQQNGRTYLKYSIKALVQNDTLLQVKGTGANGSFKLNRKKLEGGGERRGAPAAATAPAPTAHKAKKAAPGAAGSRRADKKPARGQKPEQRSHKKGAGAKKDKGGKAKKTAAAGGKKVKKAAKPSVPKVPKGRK
Sequence of UBTF (human) (P17480 other isoform, or with tags, fused parts or gaps limits assumed): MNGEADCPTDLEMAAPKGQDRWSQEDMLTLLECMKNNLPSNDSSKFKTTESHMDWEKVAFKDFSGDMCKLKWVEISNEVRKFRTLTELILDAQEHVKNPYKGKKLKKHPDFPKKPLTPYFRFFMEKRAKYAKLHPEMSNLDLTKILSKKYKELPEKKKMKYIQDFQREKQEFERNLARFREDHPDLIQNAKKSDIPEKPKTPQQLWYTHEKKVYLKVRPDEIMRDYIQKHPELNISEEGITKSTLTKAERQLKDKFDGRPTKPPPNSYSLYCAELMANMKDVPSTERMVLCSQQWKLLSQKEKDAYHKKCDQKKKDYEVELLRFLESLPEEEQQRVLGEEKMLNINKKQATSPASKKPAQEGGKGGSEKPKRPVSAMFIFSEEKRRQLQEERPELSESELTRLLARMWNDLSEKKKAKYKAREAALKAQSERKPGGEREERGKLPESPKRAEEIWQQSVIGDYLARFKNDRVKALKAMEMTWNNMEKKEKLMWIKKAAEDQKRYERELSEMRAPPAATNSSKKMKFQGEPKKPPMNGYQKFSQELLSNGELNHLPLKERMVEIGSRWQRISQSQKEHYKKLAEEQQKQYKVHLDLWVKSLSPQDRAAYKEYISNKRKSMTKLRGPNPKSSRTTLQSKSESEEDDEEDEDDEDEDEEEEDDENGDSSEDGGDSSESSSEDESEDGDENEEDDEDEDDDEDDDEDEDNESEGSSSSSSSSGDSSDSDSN
Sequence of KTN1 (human) (Q86UP2 whole entry): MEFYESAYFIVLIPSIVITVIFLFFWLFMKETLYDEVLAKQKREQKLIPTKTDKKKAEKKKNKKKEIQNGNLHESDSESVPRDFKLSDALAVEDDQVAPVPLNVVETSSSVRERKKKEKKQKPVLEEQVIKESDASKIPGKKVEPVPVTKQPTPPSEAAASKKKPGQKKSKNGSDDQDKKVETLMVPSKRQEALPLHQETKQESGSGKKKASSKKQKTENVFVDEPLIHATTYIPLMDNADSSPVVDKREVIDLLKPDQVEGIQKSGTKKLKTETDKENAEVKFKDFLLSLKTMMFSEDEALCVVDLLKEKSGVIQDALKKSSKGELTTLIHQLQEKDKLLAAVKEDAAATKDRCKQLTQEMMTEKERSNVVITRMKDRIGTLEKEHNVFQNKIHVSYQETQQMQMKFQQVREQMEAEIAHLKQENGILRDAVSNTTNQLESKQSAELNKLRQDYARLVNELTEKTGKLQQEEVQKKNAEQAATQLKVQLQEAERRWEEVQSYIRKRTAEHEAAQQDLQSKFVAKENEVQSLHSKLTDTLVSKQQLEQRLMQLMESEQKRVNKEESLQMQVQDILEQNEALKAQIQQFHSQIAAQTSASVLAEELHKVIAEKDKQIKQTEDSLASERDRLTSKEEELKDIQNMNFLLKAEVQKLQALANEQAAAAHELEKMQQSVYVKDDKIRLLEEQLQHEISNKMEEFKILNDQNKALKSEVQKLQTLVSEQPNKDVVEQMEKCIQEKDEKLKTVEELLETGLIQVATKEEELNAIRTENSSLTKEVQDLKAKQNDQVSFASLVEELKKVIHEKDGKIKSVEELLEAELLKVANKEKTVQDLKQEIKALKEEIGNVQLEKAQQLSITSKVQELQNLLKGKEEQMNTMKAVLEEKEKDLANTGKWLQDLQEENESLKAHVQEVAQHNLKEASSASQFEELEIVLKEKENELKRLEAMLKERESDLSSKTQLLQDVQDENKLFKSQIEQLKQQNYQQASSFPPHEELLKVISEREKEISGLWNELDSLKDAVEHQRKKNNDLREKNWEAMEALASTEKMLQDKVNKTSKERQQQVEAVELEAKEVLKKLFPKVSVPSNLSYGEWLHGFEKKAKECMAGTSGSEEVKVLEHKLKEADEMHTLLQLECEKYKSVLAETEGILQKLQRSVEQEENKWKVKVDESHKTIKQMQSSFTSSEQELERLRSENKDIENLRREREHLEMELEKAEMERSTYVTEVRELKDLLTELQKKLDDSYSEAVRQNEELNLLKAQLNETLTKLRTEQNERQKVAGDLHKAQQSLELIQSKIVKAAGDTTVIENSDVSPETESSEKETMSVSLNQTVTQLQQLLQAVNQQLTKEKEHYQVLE
Sequence of IFI16 (human) (Q16666 other isoform, or with tags, fused parts or gaps limits assumed): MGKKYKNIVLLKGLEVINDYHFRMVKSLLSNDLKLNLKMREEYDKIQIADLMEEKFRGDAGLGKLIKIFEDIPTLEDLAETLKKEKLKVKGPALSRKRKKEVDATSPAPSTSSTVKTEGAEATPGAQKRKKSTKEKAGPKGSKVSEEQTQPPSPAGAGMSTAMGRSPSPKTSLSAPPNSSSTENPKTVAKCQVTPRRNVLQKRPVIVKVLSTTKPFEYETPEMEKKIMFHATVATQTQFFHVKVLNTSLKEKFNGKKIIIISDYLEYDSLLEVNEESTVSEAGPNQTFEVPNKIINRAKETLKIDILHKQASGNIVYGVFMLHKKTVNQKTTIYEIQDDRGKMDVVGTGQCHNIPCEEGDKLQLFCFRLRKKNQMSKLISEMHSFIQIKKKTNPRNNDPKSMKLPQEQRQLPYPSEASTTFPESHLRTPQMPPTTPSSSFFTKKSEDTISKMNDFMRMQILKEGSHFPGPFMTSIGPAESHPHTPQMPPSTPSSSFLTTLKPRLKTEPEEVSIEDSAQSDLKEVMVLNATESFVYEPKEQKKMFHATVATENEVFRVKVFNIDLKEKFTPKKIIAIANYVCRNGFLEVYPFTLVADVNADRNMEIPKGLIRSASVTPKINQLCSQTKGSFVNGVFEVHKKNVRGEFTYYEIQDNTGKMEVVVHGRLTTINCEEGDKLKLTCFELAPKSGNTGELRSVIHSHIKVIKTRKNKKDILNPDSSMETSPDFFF

## IgG control (Millipore Sigma 12-371) (antibody)
[1]
  co-IP mass spectrometry count: 3
[2]
  co-IP mass spectrometry count: 0
[3]
  co-IP mass spectrometry count: 3
[4]
  co-IP mass spectrometry count: 0
[5]
  co-IP mass spectrometry count: 0
[6]
  co-IP mass spectrometry count: 0
[7]
  co-IP mass spectrometry count: 0
[8]
  co-IP mass spectrometry count: 0
[9]
  co-IP mass spectrometry count: 0
[10]
  co-IP mass spectrometry count: 0
[11]
  co-IP mass spectrometry count: 0
[12]
  co-IP mass spectrometry count: 0
[13]
  co-IP mass spectrometry count: 2
[14]
  co-IP mass spectrometry count: 0
[15]
  co-IP mass spectrometry count: 0
[16]
  co-IP mass spectrometry count: 0
[17]
  co-IP mass spectrometry count: 14
[18]
  co-IP mass spectrometry count: 0
[19]
  co-IP mass spectrometry count: 2
[20]
  co-IP mass spectrometry count: 0
[21]
  co-IP mass spectrometry count: 0
[22]
  co-IP mass spectrometry count: 0
[23]
  co-IP mass spectrometry count: 0
[24]
  co-IP mass spectrometry count: 0
[25]
  co-IP mass spectrometry count: 0
[26]
  co-IP mass spectrometry count: 2
[27]
  co-IP mass spectrometry count: 0
[28]
  co-IP mass spectrometry count: 0
[29]
  co-IP mass spectrometry count: 0
[30]
  co-IP mass spectrometry count: 0
[31]
  co-IP mass spectrometry count: 0
[32]
  co-IP mass spectrometry count: 0
[33]
  co-IP mass spectrometry count: 0
[34]
  co-IP mass spectrometry count: 0
[35]
  co-IP mass spectrometry count: 0
[36]
  co-IP mass spectrometry count: 0
[37]
  co-IP mass spectrometry count: 0
[38]
  co-IP mass spectrometry count: 0
[39]
  co-IP mass spectrometry count: 2
[40]
  co-IP mass spectrometry count: 0
